Experiments:
[1] = biological target: T1, human IL-33 (R&D Systems, #3625-IL-010/CF) (human, UniProt O95760 112-270); assay: SPR 25C pH7.4, mAb captured; upper limit, kd fixed
T1 construct: Commercial recombinant protein; also called hIL-33; interleukin-33
T1 sequence (looked up): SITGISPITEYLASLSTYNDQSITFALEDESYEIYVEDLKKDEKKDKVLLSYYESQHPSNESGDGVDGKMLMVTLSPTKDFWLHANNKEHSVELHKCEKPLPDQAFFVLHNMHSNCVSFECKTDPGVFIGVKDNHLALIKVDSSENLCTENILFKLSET
Description: (§1) Equilibrium dissociation constants (KD values) for IL-33 binding to purified anti-IL-33 monoclonal antibodies were determined using a real-time surface plasmon resonance biosensor using a Biacore 4000 instrument. The Biacore sensor surface was first derivatized by amine coupling with either a polyclonal rabbit anti-mouse antibody (GE, # BR-1008-38) or with a monoclonal mouse anti-human Fc antibody (GE, # BR-1008-39) to capture anti-IL-33 monoclonal antibodies expressed with mouse or with human IgG4 constant regions, respectively. All Biacore binding studies were performed in 0.01M ADA pH 7.4, 0.15M NaCl, 3 mM EDTA, and 0.05% v/v Surfactant Tween-20 (ABS-ET running buffer). […] Association of either hIL-33 or MfIL-33-6His to the captured monoclonal antibody was monitored for 4 minutes and their dissociation in ABS-ET running buffer was monitored for 10 minutes. […] To achieve this, association of either hIL-33 or MfIL-33-6His to the captured monoclonal antibody was monitored for 4 minutes in ABS-ET running buffer. Following a 30 second dissociation of either hIL-33 or MfIL-33-6His in ABS-ET running buffer, ABS-ET pH6 buffer was injected for 3 minutes, and the analyte dissociation under the low-pH conditions was measured. […] Binding dissociation equilibrium constants (KD) and dissociative half-lives (t½) were calculated from the kinetic rate constants as: […]

[2] = biological target: T1, human IL-33 (R&D Systems, …); assay: SPR 25C pH7.4, mAb captured; no dissociation seen, kd fixed
Description: as §1

- Kd [1]: ≤ 0.0788 nM
- koff [2]: ≤ 1e-05 s⁻¹
B1: H1M9566N (antibody, mouse IgG1, V domains shown)
VH: EVQLLESGGDLVQPGGSLRLSCAASGFTFSSYAMSWVRQAPGKGLEWVSVISGSGSSTDYADSVKGRFTISRDNSRDTLHLQMNSLRAEDTAVYYCAKTFYYFYGLDVWGQGTTVTVSS
VL: DIQMTQSPSSLSASLRDRVTITCRASQGISNYLAWYQQKPGKVPKVLIYAASTLQSGVPSRFSGSGSGTVFTLTISSLQTEDVATYYCQKYSSAPFTFGPGTKVDIK
notes: Human variable domains, mouse IgG1 Fc (H1M)
